In US20040197306A1 (SCHERING, published 2004):

Legend:
Test in all cases: FACS, FLAG-tagged ligand supernatant on Baf/3 cells with chimeric receptor, anti-FLAG M2 detection
[1] = target: T1, mouse IL-17RD (DCRS8) extracellular domain fused to transmembrane and intracellular domains of murine GCSFR, … (mouse, UniProt Q8JZL1 17-299; P40223 627-837, limits assumed)
T1 construct: extracellular domain;domain: transmembrane and intracellular domains; Chimeric receptor stably expressed on Baf/3 cells; also called MuIL-17RX-MuGCSFR (X = D)
T1 sequence (looked up): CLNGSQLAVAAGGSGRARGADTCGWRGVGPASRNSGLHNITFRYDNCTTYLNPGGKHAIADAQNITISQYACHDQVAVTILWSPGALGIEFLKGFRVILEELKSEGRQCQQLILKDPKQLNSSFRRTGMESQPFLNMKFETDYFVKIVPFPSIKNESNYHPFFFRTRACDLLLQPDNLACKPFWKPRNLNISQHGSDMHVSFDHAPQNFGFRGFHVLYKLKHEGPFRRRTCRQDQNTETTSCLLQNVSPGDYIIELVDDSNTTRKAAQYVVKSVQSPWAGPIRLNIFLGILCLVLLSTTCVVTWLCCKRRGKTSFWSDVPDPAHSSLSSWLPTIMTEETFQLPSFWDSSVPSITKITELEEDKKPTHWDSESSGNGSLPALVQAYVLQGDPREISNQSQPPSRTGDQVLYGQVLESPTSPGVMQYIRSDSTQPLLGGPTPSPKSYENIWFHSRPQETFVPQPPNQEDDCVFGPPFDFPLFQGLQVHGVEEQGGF
Protocol: (§1) FACS analysis was used to determine specific binding of the various ligands to the various receptors. Baf/3 or Baf/3 mouse IL17RX-mouse GCSFR cells were incubated with ligand containing cell supernatants for one hour on ice. The cells were then washed once in FACS buffer and resuspended in 10 μg/ml ANTI-FLAG® M2 antibody (Sigma, St. Louis, Mo.) for one hour on ice. Cells were washed once in FACS buffer and resuspended in 10 μl/ml anti-mouse IgG-PE (Jackson ImmunoResearch, West Grove, Pa.) for 30 minutes on ice. Cells were washed once in FACS buffer and resuspended in FACS buffer and 1 μl/ml propidium iodide (Roche Applied Science, Indianapolis, Ind.) and analyzed on a FACS Calibur (Becton Dickinson, San Jose, Calif.). The chimeric receptor cell based assay was used to visualize the binding of each of the IL-17 family ligands to the receptors by FACS.

[2] = target: T2, mouse IL-17RA extracellular domain fused to transmembrane and intracellular domains of murine GCSFR, on Baf/3 … (mouse, UniProt Q60943 32-322; P40223 627-837, limits assumed)
T2 construct: extracellular domain;domain: transmembrane and intracellular domains; Chimeric receptor stably expressed on Baf/3 cells; also called MuIL-17RX-MuGCSFR (X = A)
Protocol: as §1

[3] = target: T3, mouse IL-17RC (DCRS7) extracellular domain fused to transmembrane and intracellular domains of murine GCSFR, … (mouse, UniProt P40223 627-837, limits assumed)
T3 construct: domain: transmembrane and intracellular domains; Chimeric receptor stably expressed on Baf/3 cells; also called MuIL-17RX-MuGCSFR (X = C)
T3 sequence: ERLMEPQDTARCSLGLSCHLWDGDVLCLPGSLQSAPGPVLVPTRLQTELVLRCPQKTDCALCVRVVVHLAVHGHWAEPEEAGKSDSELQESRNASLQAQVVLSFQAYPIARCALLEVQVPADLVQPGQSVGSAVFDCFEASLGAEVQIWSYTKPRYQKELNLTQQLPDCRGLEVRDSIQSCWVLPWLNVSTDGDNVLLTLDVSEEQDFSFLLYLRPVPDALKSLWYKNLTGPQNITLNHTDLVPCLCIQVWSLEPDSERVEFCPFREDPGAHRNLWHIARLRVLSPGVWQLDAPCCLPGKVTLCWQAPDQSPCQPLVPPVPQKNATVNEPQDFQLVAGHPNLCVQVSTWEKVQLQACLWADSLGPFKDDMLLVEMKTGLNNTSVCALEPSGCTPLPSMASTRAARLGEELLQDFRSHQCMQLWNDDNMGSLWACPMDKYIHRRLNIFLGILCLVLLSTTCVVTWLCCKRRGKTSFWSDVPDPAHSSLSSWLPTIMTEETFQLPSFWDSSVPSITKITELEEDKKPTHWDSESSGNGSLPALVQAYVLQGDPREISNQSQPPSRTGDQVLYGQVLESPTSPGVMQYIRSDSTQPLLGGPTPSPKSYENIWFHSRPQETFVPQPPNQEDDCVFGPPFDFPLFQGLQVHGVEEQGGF
Protocol: as §1

Measured: binding result

B1: FLAG-tagged IL-17C (ligand)
chain: HHDPSLRGHPHSHGTPHCYSAEELPLGQAPPHLLARGAKWGQALPVALVSSLEAASHRGRHERPSATTQCPVLRPEEVLEADTHQRSISPWRYRVDTDEDRYPQKLAFAECLCRGCIDARTGRETAALNSVRLLQSLLVLRRRPCSRDGSGLPTPGAFAFHTEFIHVPVGCTCVLPRSV
notes: Used as supernatant of transfected 293T cells; also called IL-71; not shown: FLAG peptide tag at the N-terminus (after the pre-protrypsin leader)
no binding: all assays above
